According to publication PMC7497807 (Blood cancer discovery, 2020):

How the values were obtained:
Assay in all cases: fluorescence polarisation
[1] = molecular target: fluorescein-labeled CBX8 peptide (FITC-CBX8) (fluorescein (printed as FITC-CBX8))
BCOR (aa 1176–1225)-FITC = molecular target: T1, BCOR (aa 1176–1225)-FITC (UniProt Q6W2J9 1176-1225, fluorescein (printed as BCOR (aa 1176–1225)-FITC))
T1 peptide (looked up): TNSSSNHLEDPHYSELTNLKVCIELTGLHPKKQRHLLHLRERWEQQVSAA

MBP-AF9 = molecular target: MBP-AF9
MBP-AF9, sequence (P42568 whole entry, the tested form may be a part): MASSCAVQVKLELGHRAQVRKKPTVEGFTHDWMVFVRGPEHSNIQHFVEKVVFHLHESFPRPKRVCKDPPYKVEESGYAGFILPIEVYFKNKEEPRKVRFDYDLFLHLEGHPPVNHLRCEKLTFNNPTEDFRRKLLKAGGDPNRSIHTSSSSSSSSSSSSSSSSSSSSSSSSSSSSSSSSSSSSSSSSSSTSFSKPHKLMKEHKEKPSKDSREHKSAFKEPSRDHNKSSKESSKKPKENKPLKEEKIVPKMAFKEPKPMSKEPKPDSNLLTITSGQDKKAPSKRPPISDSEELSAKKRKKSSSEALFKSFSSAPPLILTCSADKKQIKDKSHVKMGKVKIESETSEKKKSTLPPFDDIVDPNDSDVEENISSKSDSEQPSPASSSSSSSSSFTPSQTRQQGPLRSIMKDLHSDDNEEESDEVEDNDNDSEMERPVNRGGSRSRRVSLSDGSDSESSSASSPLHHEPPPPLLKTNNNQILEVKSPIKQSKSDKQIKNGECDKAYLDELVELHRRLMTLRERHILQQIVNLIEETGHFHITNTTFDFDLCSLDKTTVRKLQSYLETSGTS

Binder | Kd [1] | fold tighter binding to MBP-ENL than to MBP-AF9 (BCOR (aa 1176–1225)-FITC) | IC50 (MBP-AF9)
MBP-ENL (domain or fragment) YTDELVELHRRLMALRERNVLQQIVNLIEETGHFNVTNTTFDFDLFSLDETTVRKLQSCLE | 0.112 ± 0.013 µM | 9 fold | 
AQGGRPSLIARIPVARILGDPEEE [unlabeled CBX8 WT peptide] |  |  | 1.88 ± 0.202 µM
